Assay results taken from patent US20160251695.

T1: α-fructosyl-valyl-histidyl-leucyl-threonyl-proryl-glutamic acid
T1 chain: VHLTPE

T2: α-fructosyl-valyl-histidine
T2 chain: VH


Experiments:
[1] = target: T1, α-fructosyl-valyl-histidyl-leucyl-threon …
[2] = target: T2, α-fructosyl-valyl-histidine

Sequence of hemoglobin A1c, P68871 (P68871 2-147, chain 1 of 2): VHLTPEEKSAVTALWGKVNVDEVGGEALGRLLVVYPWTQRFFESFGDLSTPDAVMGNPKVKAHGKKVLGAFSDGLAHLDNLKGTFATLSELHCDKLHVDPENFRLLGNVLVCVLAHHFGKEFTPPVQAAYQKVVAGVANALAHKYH
Sequence of hemoglobin A1c, P68871 (chain, as listed by the source, chain 2 of 2): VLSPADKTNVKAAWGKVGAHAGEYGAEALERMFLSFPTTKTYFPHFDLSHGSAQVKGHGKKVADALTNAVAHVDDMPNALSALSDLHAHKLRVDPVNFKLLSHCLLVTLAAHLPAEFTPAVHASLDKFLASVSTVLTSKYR

Protein | ΔA at 751 nm against HbA1c concentration; acid-treated sample (Reagent D1, Reagent F2) (hemoglobin A1c, P68871) | Specific activity (U/mg), 1 mM αF6P [1] [U/mg] | ΔA at 751 nm (hydrogen peroxide generated upon oxidation of the HbA1c β-chain amino terminus) against HbA1c concentration; heat-treated sample (hemoglobin A1c, P68871) | Specific activity (U/mg), 1 mM αFVH [2] [U/mg] | αFVH oxidation activity [2] | αF6P oxidation activity ([1]; scale: relative value) | ΔA at 751 nm against HbA1c concentration; acid-treated sample (Reagent D1 or D2, Reagent F1) (hemoglobin A1c, P68871) | specific activity on αF6P, fold over FAOAo2 (Comparative Example 2) [1] | αF6P oxidation activity ratio (relative value (CFP-T7-H28 = 100)) [1]
EFP-T5-62D/63H/106K/110L/113K/355S (protein) MAHSRASTKVVVVGGGGTIGSSTALHLIRSGYTPSNITVLDVYKTPSLQSAGHDLNKIMGIDHRNGPDLQLSLESLDMWQNDELFKPFFHQVGMIDCSSSKEGIEKLRRLYQKLLDAGIGLEKTNVWLESEDEILAKAPNFTREQVKGWKGLFCTDGGWLAAAKAINAIGIFLQDKGVKFGFGDAGTFQQPLFAADGKTCIGLETTDGTKYFADKVVLAAGAWSPTLVDLEDQCVSKAWVFAHIQLTPKEADAYKNVPVVYDGEYGFFFEPDEYGVIKVCDEFPGFSRFKLHQPYGAASPKMISVPRSHAKHPTDTYPDASEVTIRKAIARFLPEFKDKELFNRTMCWCTDTADSNLLICEHPKWKNFILATGDSGHSFKLLPNIGKYVVELLEGSLSQEMAGAWRWRPGGDALRSRRGAPAKDLAEMPGWKHDAHL | Amadoriase 28 from EFP-T5 exhibiting high specific activity on αF6P was also found to act directly on HbA1c (FIG. 6-3) | 1.12 |  |  |  |  |  |  | 
CFP-T7 (protein) MTSNRADTRVIVVGGGGTIGSSTALHLVRSGYAPANITVLDTFEIPSAQSAGHDLNKIMGIRLRNKVDLQMSLEARQMWKEDELFQPFFHNTGRMDCEHTPEGIEDLKKQYQALHDAGAGLEKTHAWLDNEDEILSKMPLLQRDQIQGWKAIWSQDGGWLAAAKAINAIGQFLKERGVKFGFGGAGSFKQPLFDDEGTTCIGVETADGTKYYADKVVLAAGAWSPTLVDLEDQCCSKAWVYAHIQLTPEEAAEYKGVPVVYNGEFGFFFEPDEFGVIKVCDEFPGFSRFKEHQPYGAPSPKRISVPRSHAKHPTDTYPDASEVSIKKAIATFLPRFQDKELFNRALCWCTDTADAALLMCEHPKWKNFILATGDSGHSFKILPNVGKYVVELIEGRLPEEMAYQWRWRPGGDALKSRRAAPPKDLADMPGWKHDPKL |  | 0 | When Reagent C2 was used, however, no correlation was observed between the HbA1c concentration and ΔA | 16.5 | CFP-T7 exhibited αFV oxidation activity and αFVH oxidation activity | 0 |  |  | 
CFP-T7-H35 (protein) MTSNRADTRVIVVGGGGTIGSSTALHLVRSGYAPANITVLDTFEIPSAQSAGHDLNKIMGIDHRNKVDLQMSLEARQMWKEDELFQPFFHNTGRMDCEHTPKGIEKLKKLYQKLHDAGAGLEKTHAWLDNEDEILSKMPLLQRDQIQGWKAIWSQDGGWLAAAKAINAIGQFLKERGVKFGFGGAGSFKQPLFDDEGTTCIGVETADGTKYYADKVVLAAGAWSPTLVDLEDQCCSKAWVYAHIQLTPEEAAEYKGVPVVYNGEFGFFFEPDEFGVIKVCDEFPGFSRFKEHQPYGAPSPKRISVPRSHAKHPTDTYPDASEVSIKKAIATFLPRFQDKELFNRALCWCTDTADSALLMCEHPKWKNFILATGDSGHSFKILPNVGKYVVELIEGRLPEEMAYQWRWRPGGDALKSRRAAPPKDLADMPGWKHDPKL |  | 4.27 | When Reagent C1 was used, a good correlation was established between the HbA1c concentration and ΔA | 1.9 |  |  | In both cases where the sample was diluted with either Reagent D1 or Reagent D2, a good correlation was established between the HbA1c concentration and ΔA | 1.940 times (Amadoriase 25/Comparative Example 2) | 206
